From patent publication US20070071744A1
“And” between values parts separate entries of the source, which are not always exact repeats. Equal entries are not always repeated. Blank lines part the entries; values can stand above or below the substance they belong to.

Columns and labels:
[1] = target: Fc-GPVI-nt (immunoadhesin: extracellular domain of human GPVI fused via Gly-Gly-Arg to human IgG Fc, dimer) (human); assay: competition ELISA, immobilized collagen as competitor
peptide 7 (human) = target: T1, peptide 7 (human); assay: PepSpot peptide array, control incubation
T1 sequence (peptide, N-terminus acetylated): LCLGRVPAQSGPL

peptide 117 (human) = target: T2, peptide 117 (human); assay: PepSpot peptide array, control incubation
T2 sequence (peptide, N-terminus acetylated): SFTNKVFTTETSR

peptide 118 (human) = target: T3, peptide 118 (human); assay: PepSpot peptide array, control incubation
T3 sequence (peptide, N-terminus acetylated): TNKVFTTETSRSI

[2] = target: mouse GPVI on mouse platelets (mouse) (UniProt P0C191); assay: cell-based or functional assay
Chain of mouse GPVI on mouse platelets (mouse) (P0C191 22-313): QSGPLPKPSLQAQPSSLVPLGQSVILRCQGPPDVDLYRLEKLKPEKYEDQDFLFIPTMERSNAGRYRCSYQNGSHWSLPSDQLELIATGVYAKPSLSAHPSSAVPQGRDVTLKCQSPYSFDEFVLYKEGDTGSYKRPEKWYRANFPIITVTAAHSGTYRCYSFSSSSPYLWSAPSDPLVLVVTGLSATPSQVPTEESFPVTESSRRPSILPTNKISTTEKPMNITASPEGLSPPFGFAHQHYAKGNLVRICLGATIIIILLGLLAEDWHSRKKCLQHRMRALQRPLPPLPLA

Chain of Fc-GPVI-nt (immunoadhesin: extracellular domain of human GPVI fused via Gly-Gly-Arg to human IgG Fc, dimer) (human) (chain, as listed by the source limits assumed): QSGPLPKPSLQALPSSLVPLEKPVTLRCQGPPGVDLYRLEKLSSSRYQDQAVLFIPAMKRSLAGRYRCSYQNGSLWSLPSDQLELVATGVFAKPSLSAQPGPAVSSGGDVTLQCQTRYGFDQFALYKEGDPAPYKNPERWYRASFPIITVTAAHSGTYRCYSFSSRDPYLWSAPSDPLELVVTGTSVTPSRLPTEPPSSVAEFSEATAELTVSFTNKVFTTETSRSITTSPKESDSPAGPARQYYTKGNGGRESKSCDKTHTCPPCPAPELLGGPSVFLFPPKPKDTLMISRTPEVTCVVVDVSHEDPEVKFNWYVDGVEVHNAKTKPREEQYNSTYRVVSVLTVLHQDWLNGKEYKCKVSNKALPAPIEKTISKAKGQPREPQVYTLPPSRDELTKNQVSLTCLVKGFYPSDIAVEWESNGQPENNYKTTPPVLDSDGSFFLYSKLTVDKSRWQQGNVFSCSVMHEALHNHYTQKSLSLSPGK

concentration required to reduce Fc-GPVI-nt binding by more than 50% [1]: 100 µg/mL
Substance: soluble collagen (solubilized fibrillar collagen) (ligand)

LU (Light Units) (peptide 7 (human)): 239 LU
LU (Light Units) (peptide 117 (human)): 377 LU
LU (Light Units) (peptide 118 (human)): 354 LU
Substance: anti-rat-HRP (Sigma A9037) (antibody)

ATP release [2]: 1.09 nM ATP
platelet aggregation of mouse platelet-rich plasma after stimulation with 2 µg collagen/ml [2]: 2% and 1.5%
Substance: monoclonal antibody anti GPVI (JAQ1)
